The text below walks through data of patent publication US20080293626A1, “Pigment epithelium-derived factor as a therapeutic agent for vascular leakage” (The Johns Hopkins University, priority 2003, published 2008).

Experiment [1] concerns VEGF-induced retinal vascular permeability. The experiment can be described thus: Fluorescein angiography after intravitreal co-injection with VEGF164. In kind it is in vivo, mouse (C57BL/6J). Particulars: mouse eye, co-injected intravitreally with 12.6 ng VEGF164 at 20-fold molar excess; 20 h after injection; qualitative. Here is the method: (§1) Intravitreal injection to assess bioactivity on vascular permeability. C57BL/6J mice, 6-8 weeks of age, were cared for in accordance with the Association for Research in Vision and Opthalmology Statement for the Use of Animals in Ophthalmic and Vision Research. For anesthesia, each received intramuscularly 20 mg/kg ketamine, 20 mg/kg xylazine and 800 mg/kg urethane in 0.3-0.4 ml of phosphate buffered saline (PBS, 1.06 mM KH2PO4, 0.15 M NaCl and 3.00 mM Na2HPO4, pH 7.4). Under 10× magnification, 1 μl of murine VEGF164 (12.6 ng/μl in PBS; R&D Systems, Minneapolis, Minn.) was delivered through a 20° beveled glass pipette, with a tip diameter of 13-20 μm. The contralateral eye received an equal volume of PBS alone or PBS containing 12.6 ng VEGF164, and a 20-fold molar excess of PEDF (232 ng), ACT (278 ng), HSP47 (278 ng), PEDFpep (28.1 ng), ACTpep (29.7 ng), or CHIMERApep (28.2 ng).
Fluorescein angiograghy. Twenty hours after intravitreal injections, each pupil was dilated with one drop of 1% atropine sulfate. After intraperitoneal injection of 0.1 ml of 25% fluorescein, successive retina photographs were taken with a Kowa Genesis camera. The first photograph was taken within 20 seconds of the intraperitoneal fluorescein injection. Time elapsed between the alternating right and left eye retinal photographs averages 10 seconds. Fluorescein leakage manifests as indistinct vascular borders progressing to diffusely hazy fluorescence.

For experiment [2] the test system is unchanged. Put plainly: Evans blue assay after intravitreal co-injection with VEGF164. In kind it is in vivo, mouse (C57BL/6J). To be noted: mouse eye, co-injected intravitreally with VEGF164 at 20-fold molar excess; for inhibition of VEGF-induced retinal vascular permeability (Evans blue-albumin): 24 h, VEGF-induced increase = 100%, mean ±SE. As to the method:
as §1
Evans Blue assay. We used a modification of the method described by Qaum et al.^44 Briefly, each mouse received intravitreal injections of proteins or peptides, and intrajugular injection of Evans blue^44. After 2 hours, 200 μl blood was taken and assayed for Evans blue. The retina was extruded and dissected free from any vitreous or adherent retinal pigment epithelium.
To assess the Evans blue-albumin concentration, the optical density of the retinal extract and plasma samples were measured at 620 nm and 740 nm. The retinal vasopermeability was calculated as the quantity of retinal Evans blue normalized to retinal dry weight, plasma Evans blue concentration, and circulation time by using the formula as described^32,44. Since all animals in this report had 1 eye injected with VEGF alone, the retinal permeability in the VEGF injected eyes was normalized to the VEGF injected eye in the set of animals where 1 eye received PBS. The VEGF-induced increase in permeability was taken to be 100%.

For experiment [3], the system named is VEGF164-stimulated bovine retinal capillary endothelial cell migration. To be noted: read-out: IC50, inhibition of VEGF-stimulated endothelial cell migration; BRCEC, VEGF164-stimulated, 8 hours at 37° C.
Procedure: BRCEC migration assay. Bovine retinal capillary endothelial cells (BRCEC) were isolated and cultured as described 45. […] Cells, between the fifth and ninth passage, were starved overnight in MEM with D-Val and 2% fetal bovine serum. Polycarbonate filters (10 μm pore-size, PVPF; Osmonics Inc., Minnetonka, Minn.) were coated with 100 μg/ml collagen. Quadruplicates with test samples in MEM D-Val (28 μl), and 10^4 cells in MEM D-Val (50 μl) were placed in the lower and upper wells, respectively, of the microchemotaxis chamber (NeuroProbe, Gaithersburg, Md.). After incubating 8 hours at 37° C., the non-migrated cells on the upper surface of the filter were removed, and the filters were stained with Harris' hematoxylin. For each of the test samples, one 400× field per quadrant of each of the quadruplicates was counted. From the total cell number in the 4 fields, the mean and standard error of the quadruplicate wells were calculated. Baseline migration equaled the number of migrated cells with MEM D-Val without any added proteins or peptides. The difference between baseline and the number of migrated cells with VEGF added equals maximal total migration.

“Also recorded” adds a separate entry of the source.

B1: HSP47: heat shock protein 47, collagen-specific chaperone protein from the serpin family, control protein (protein, UniProt P50454 19-418, looked up)
Serpin H1: AEVKKPAAAAAPGTAEKLSPKAATLAERSAGLAFSLYQAMAKDQAVENILVSPVVVASSLGLVSLGGKATTASQAKAVLSAEQLRDEEVHAGLGELLRSLSNSTARNVTWKLGSRLYGPSSVSFADDFVRSSKQHYNCEHSKINFRDKRSALQSINEWAAQTTDGKLPEVTKDVERTDGALLVNAMFFKPHWDEKFHHKMVDNRGFMVTRSYTVGVMMMHRTGLYNYYDDEKEKLQIVEMPLAHKLSSLIILMPHHVEPLERLEKLLTKEQLKIWMGKMQKKAVAISLPKGVVEVTHDLQKHLAGLGLTEAIDKNKADLSRMSGKKDLYLASVFHATAFELDTDGNPFDQDIYGREELRSPKLFYADHPFIFLVRDTQSGSLLFIGRLVRPKGDKMRDEL
Take B1: the “effect on VEGF-induced fluorescein leakage / vascular permeability (fluorescein angiography)” value in experiment [1] is “no effect”. In experiment [2], the “inhibition of VEGF-induced retinal vascular permeability (Evans blue-albumin)” value (shortened to “inhibition”) was found to be 19.4±22.3%.

B2: ACT: α1-antichymotrypsin, a classical serpin used as control protein (protein, UniProt P01011 24-423, looked up)
Alpha-1-antichymotrypsin: HPNSPLDEENLTQENQDRGTHVDLGLASANVDFAFSLYKQLVLKAPDKNVIFSPLSISTALAFLSLGAHNTTLTEILKGLKFNLTETSEAEIHQSFQHLLRTLNQSSDELQLSMGNAMFVKEQLSLLDRFTEDAKRLYGSEAFATDFQDSAAAKKLINDYVKNGTRGKITDLIKDLDSQTMMVLVNYIFFKAKWEMPFDPQDTHQSRFYLSKKKWVMVPMMSLHHLTIPYFRDEELSCTVVELKYTGNASALFILPDQDKMEEVEAMLLPETLKRWRDSLEFREIGELYLPKFSISRDYNLNDILLQLGIEEAFTSKADLSGITGARNLAVSQVVHKAVLDVFEEGTEASAATAVKITLLSALVETRTIVRFNRPFLMIIVPTDTQNIFFMSKVTNPKQA
Consider B2, for which, in experiment [1], the “effect on VEGF-induced fluorescein leakage / vascular permeability (fluorescein angiography)” value is reported as “no effect”. Besides, in experiment [2], the “inhibition” value came out at 3.4±18.2%.

B3: PEDF: Recombinant human pigment epithelium-derived factor, 418-amino acid 50-kDa glycoprotein, produced in 293 cells (SEQ ID NO: 1) (protein, listed as Homo sapiens)
chain: MQALVLLLCIGALLGHSSCQNPASPPEEGSPDPDSTGALVEEEDPFFKVPVNKLAAAVSNFGYDLYRVRSSMSPTTNVLLSPLSVATALSALSLGAEQRTESIIHRALYYDLISSPDIHGTYKELLDTVTAPQKNLKSASRIVFEKKLRIKSSFVAPLEKSYGTRPRVLTGNPRLDLQEINNWVQAQMKGKLARSTKEIPDELSLLLLGVAHFKGQWVTKFDSRKTSLEDFYLDEERTVRVPMMSDPKAVLRYGLDSDLSCKIAQLPLTGSMSLIFFLPLKVTQNLTLIEESLTSEFIHDIDRELKTVQAVLTVPKLKLSYEGEVTKSLQEMKLQSLFDSPDFSKITGKPIKLTQVEHRAGFEWNEDGAGTTPSPGLQPAHLTFPLDYHLNQPFIFVLRDTDTGALLFIGKILDPRGP
modifications: glycosylated
On to B3, for which, in experiment [1], the “effect on VEGF-induced fluorescein leakage / vascular permeability (fluorescein angiography)” value is “not observed; also recorded: inhibits”. For the same molecule, the “inhibition” value in experiment [2] came to 95.6±21.2%. The “effect on VEGF-induced vascular permeability by Evans blue assay” value in experiment [2] (qualitative statement) was “obliterated”. Moreover, the IC50 in experiment [3] is 0.5 nM.
